The assay has as its target one-twelfth protomer of the giant extracellular haemoglobin from Glossoscolex paulistus (cyanomet HbGp) (Glossoscolex paulistus). Briefly: crystal structure; cyanomet-HbGp, whole particle; crystals from 1.2 M sodium citrate, 2.5 mM CaCl2, 50 mM Tris-HCl pH 7.5; space group I222, data to 3.2 Å; molecular replacement with the one-twelfth protomer of L. terrestris erythrocruorin (2gtl); preliminary, not refined.

In turn, “one-twelfth protomer of the giant extracellular haemoglobin from Glossoscolex paulistus (cyanomet HbGp) (complex)” displayed a stoichiometry N (protomers per full particle) of 12.

The record behind these values is paper PMC3004248.
